Experimental data from article PMC6213277.
Values belong to the molecule of their own block, whether it stands above or below them.

What was measured:
[1] = biological target: McjD-C547 (cys-less McjD with the native cysteine C547 only), labelled with Alexa555 and Alexa647 (Escherichia coli) (UniProt Q9X2W0); test: FRET or BRET; single-molecule FRET, confocal scanning, 10 ms time resolution; labelled McjD reconstituted in biotin-DOPE proteoliposomes (protein to lipid ~1:1,000 w/w) immobilised through neutravidin on PEG-biotin coverslips; oxygen-free buffer with Trolox; FRET between the single cysteines of the two protomers
[2] = biological target: McjD L67C (single cysteine in cys-less McjD), labelled with Alexa555 and Alexa647 (Escherichia coli) (UniProt Q9X2W0)
[3] = biological target: McjD Y64C (single cysteine in cys-less McjD), labelled with Alexa555 and Alexa647 (Escherichia coli) (UniProt Q9X2W0)

lifetime of the dimerized ATP-free NBD state [1]: 82 ms
Molecule: McjD-C547 (cys-less McjD with the native cysteine C547 only), labelled with Alexa555 and Alexa647 (from UniProt Q9X2W0 1-580) (natural protein)

mean apparent FRET efficiency E* between the dyes at L67C of the two protomers (opening of the TMD), proteoliposomes, with 10 mM ATP and 200 uM MccJ25 (apo 0.69) [2]: 0.51 | mean apparent FRET efficiency E* between the dyes at L67C of the two protomers (opening of the periplasmic gate of the TMD), detergent, with ATP + MccJ25 (apo 0.95; ATP alone 0.95) [2]: 0.83 | mean apparent FRET efficiency E* between the dyes at Y64C of the two protomers (opening of the TMD), proteoliposomes, with 10 mM ATP and 200 uM MccJ25, first population (apo 0.81 & 0.60) [3]: 0.82 | mean apparent FRET efficiency E* between the dyes at Y64C of the two protomers (opening of the TMD), proteoliposomes, with 10 mM ATP and 200 uM MccJ25, second population (apo 0.81 & 0.60) [3]: 0.52 | mean apparent FRET efficiency E* between the dyes at Y64C of the two protomers (opening of the periplasmic gate of the TMD), detergent, with ATP + MccJ25 (apo 1.07; ATP alone 1.01) [3]: 0.91
B1: antibacterial peptide MccJ25 (peptide)
peptide: GGAGHVPEYFVGIGTPISFYG
